{"source": "patent US20180066060A1", "molecular_target": "human CD303 antigen (human) (UniProt Q8WTT0)", "sequence (Q8WTT0 whole entry)": "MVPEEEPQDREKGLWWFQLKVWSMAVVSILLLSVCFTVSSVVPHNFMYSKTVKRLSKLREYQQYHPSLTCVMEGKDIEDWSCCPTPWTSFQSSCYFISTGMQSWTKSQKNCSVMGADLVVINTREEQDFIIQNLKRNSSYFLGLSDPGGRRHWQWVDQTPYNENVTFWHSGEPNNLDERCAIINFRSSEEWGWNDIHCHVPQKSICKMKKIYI", "test": "cell-based or functional assay", "data": [{"binder": "humanized anti-CD303 antibody BIIB059 (antibody, INN chains, looked up, V domains shown) VH: DVQLVESGGGLVKPGGSLRLSCAASGFTFSTYTMSWVRQAPGKGLEWVATISPGDSFGYYYPDSVQGRFTISRDNAKNSLYLQMNSLRAEDTAVYYCTRDIYYNYGAWFAYWGQGTLVTVSS VL: DIQLTQSPSSLSASVGDRVTITCKASQSVDYDGDSYMNWYQQKPGKAPKLLIYAASTLESGVPSRFSGSGSGTDFTLTISSLQPEDFATYYCQQANEDPRTFGQGTKVEIK", "values": [{"measurement": "EC50 (ng/mL), ADCC activity via CD16a", "value": 1.68, "unit": "ng/mL"}, {"measurement": "Emax (% lysis), ADCC activity via CD16a", "value": 29.3, "unit": "% lysis"}]}]}
